# From patent US20250027068A1 (published 2025)
# Positions count from the first letter of the chain named.
# B1: PRT-395 (enzyme)
# chain: MVTSVWTKGVTPPADFTQGEDVFHAPYVANQGWYDITKTFNGKDDLLCGAATAGNMLHWWFDQNKEYIEAYLKKHPEKQKIMFGDQELLDVRKAINTKGSQKNSELFNYFRDKAFPTLSARRLGVMPDLVLDMFINGYYLNVTKTQTTDVNRTYQEKDKRGGIFDAVFTRGDQSKLLTSRHDFKEKGLKEISDLIKQELTEGKALGLSHTYANVRINHVINLWGADFDSDGNLKAIYVTDSDSNASIGMKKYFVGVNSAGKVAISAKEIKEDNIGAQVLGLFTLSTGQDIWNQTN
# B2: PRT-403 (enzyme)
# chain: B1 chain with T117N, N217S
# B3: PRT-396 (enzyme)
# chain: B1 chain with T117N, Y211T
# B4: PRT-411 (enzyme)
# chain: B1 chain with T117N, N244R
# B5: PRT-380 (enzyme)
# chain: MVTSVWTKGVTPPTNFTYGEDVLHAPYVANQGWYDITKTFNGKDDLLCGAATAGNMLHWWFDQNKEQIENYLKKHPEKQKINFNGEQMFDVKEAIDTKDSQLDSKLFEYFKEKAFPYLSTKHLGVFPDHVIDMFINGYRLSLTNHGPTPVKRGSKDPRGGIFDAVFTRGDQSKLLTNRHDFKEKTLKEISDLIKQELTEGKALGISHTYANARINHVINLWGADFDAEGNLEAIYVTDSDSNASIGMKKYFVGVNSNGKVAISAKEIEEDNIGAQVLGLFTLSTGQDIWNQTN
# B6: PRT-388 (enzyme)
# chain: B5 chain with D45T, A212V
# B7: PRT-419 (enzyme)
# chain: MTITSVWTKGVTPPTPEDFRYNNEDVLHAPYVANQGWYDITKTFDGKDNLLCGAATAGNMLHWWFDQNKEEIERYLKKHPEKQKIIFNNQELFDVKAAIDTKDSQTNSKLFNYFRDKAFPNLSARQLGVMPDLVLDMFINGYYLNLGKTQSTDVNRPYQDKDKRGGIFDAVFTRGDQTTLLTARHDLKNKGLNEISDLIKQELTEGKALALSHTYANVRINHVINLWGADFDAEGNLIAIYVTDSDANASIGMKKYFVGVNANGKVAISAKKIEGDNIGAQVLGLFTLSTGQDQWQKLS
# B8: PRT-427 (enzyme)
# chain: B7 chain with D176V, Q294I
# Molecular target: pooled human IgG (human IgG1, 2, 3 and 4) (human)
# Experiment: cell-based or functional assay
# Further: test concentration or dose not given here.
Binder,Enzyme Activity Endpoint Assay: Fab′2,Enzyme Activity Endpoint Assay: Fc,Enzyme Activity Endpoint Assay: IgG,Enzyme Activity Endpoint Assay: scIgG
B1,544 ng/µL,358 ng/µL,0 ng/µL,204 ng/µL
B2,569 ng/µL,332 ng/µL,166 ng/µL,40 ng/µL
B3,0 ng/µL,92 ng/µL,1010 ng/µL,215 ng/µL
B4,519 ng/µL,341 ng/µL,90 ng/µL,155 ng/µL
B5,66 ng/µL,258 ng/µL,219 ng/µL,702 ng/µL
B6,481 ng/µL,338 ng/µL,34 ng/µL,222 ng/µL
B7,528 ng/µL,298 ng/µL,183 ng/µL,0 ng/µL
B8,537 ng/µL,352 ng/µL,135 ng/µL,139 ng/µL
